Assay results published in article PMC10339645, “Kinetic characterization of annotated glycolytic enzymes present in cellulose-fermenting Clostridium thermocellum suggests different metabolic roles” (Biotechnology for Biofuels and Bioproducts, 2023).
Blank lines part the entries; values can stand above or below the molecule they belong to.

How the values were obtained:
[1] = target: T1, PfkA (Acetivibrio thermocellus, UniProt A3DEW4); experiment: coupled NADH oxidation at […] nm, relative activity; assay type: biochemical; details: inhibitor; 2 mM F6P, 2 mM ATP or GTP; NH4Cl; 55 °C
T1 construct: N-terminal His6 tag with ~4-kDa linker (pRSET-A, plasmid pAHCT1261), tag kept; codon-optimized, E. coli T7 Shuffle; ~40 kDa monomer

[2] = target: T1, PfkA; experiment: coupled NADH oxidation at […] nm, relative activity; assay type: biochemical; details: inhibitor; GTP as phosphate donor; 2.5 mM MgCl2; NH4Cl; 55 °C
[3] = target: T2, PfkB (Acetivibrio thermocellus, UniProt A3DCE8); experiment: coupled NADP+ reduction at […] nm, relative activity; assay type: biochemical; details: inhibitor; fructose 2.24 mM, phosphate donor 2.24 mM; 55 °C
T2 construct: gene Cthe_0389; N-terminal His6 tag with ~4-kDa linker (pRSET-A, plasmid pAHCT0389), tag kept; codon-optimized, E. coli T7 Shuffle; ~40 kDa monomer

[4] = target: T2, PfkB; experiment: coupled NADP+ reduction at […] nm, relative activity; assay type: biochemical; details: inhibitor; GTP as phosphate donor 2.24 mM; fructose 2.24 mM; 55 °C
[5] = substrate: Nc1ncnc2c1ncn2[C@@H]1O[C@H](COP(=O)(O)OP(=O)(O)OP(=O)(O)O)[C@@H](O)[C@H]1O; experiment: purified protein; assay type: biochemical, Acetivibrio thermocellus
[6] = substrate: Nc1nc2c(ncn2[C@@H]2O[C@H](COP(=O)(O)OP(=O)(O)OP(=O)(O)O)[C@@H](O)[C@H]2O)c(=O)[nH]1; experiment: purified protein; assay type: biochemical, Acetivibrio thermocellus
[7] = fructose 2 mM constant, 5 mM MgCl2, pH 7.5, 55 °C
[8] = F6P 2 mM constant, 5 mM MgCl2, 2 mM NH4Cl, pH 7.5, 55 °C, extrapolated beyond 2 mM ATP
[9] = F6P 2 mM constant, 5 mM MgCl2, 2 mM NH4Cl, pH 7.5, 55 °C

Molecule: C=C(OP(=O)(O)O)C(=O)O [PEP]
relative activity at 2 mM [1]: addition of PEP or PPi caused a decrease in the activity of PfkA

% relative activity at 0.05 mM [2]: 21%
Molecule: O=P(O)(O)OP(=O)(O)O [PPi]

Molecule: OC[C@H]1OC(O)[C@H](O)[C@@H](O)[C@H]1O (stereo partly shown) [galactose]
relative activity at 2.24 mM [3]: Galactose also caused a noticeable decrease in activity

% relative activity at 2.24 mM [4]: 38%
Molecule: Nc1ncnc2c1ncn2[C@@H]1O[C@H](COP(=O)(O)O)[C@@H](O)[C@H]1O [AMP]

% relative activity at 2.24 mM [4]: 38%
Molecule: Nc1ncnc2c1ncn2[C@@H]1O[C@H](COP(=O)(O)OP(=O)(O)O)[C@@H](O)[C@H]1O [ADP]

B1: PfkB (Acetivibrio thermocellus ATCC 27405) (protein)
chain: MFDVVAVGELLIDFLPAGTNENGMPLFSSNPGGAPANVLAMLSKLGAKTAFIGKVGKDGFGQFLKATLDNAGIDTSNLLMSSSEMTTLAFVHLNEKGDRSFSFYRKHCADVSLDAGELDKDLLRTCHFLHFGAVSLTDEPSRTATLEAARIAKEAGAIISYDPNYRPALWSNEHEARKYMLKAVEYADLVKVSEEELWLLAESEDFSKGAHKLLAMGPSVVFVTCGEKGSYVFTGSCKANHCGYDVKVVDTTGAGDAFVGAMLWQLRGMSLEEISQICEQKWGELLAFSNAAGTIVATKKGAIPAMPDLDTINTFMRQFLEEK
notes: N-terminal His6 tag with ~4-kDa linker (pRSET-A, plasmid pAHCT0389), tag kept; codon-optimized, E. coli T7 Shuffle; ~40 kDa monomer
Km [5, 7]: 400 ± 100 µM
Vmax [5, 7]: 110 µmol/min/mg
Km [6, 7]: 200 ± 80 µM
Vmax [6, 7]: 124 µmol/min/mg

B2: PfkA (Acetivibrio thermocellus ATCC 27405) (protein)
chain: MSSVRTIGVLTSGGDAPGMNAAIRSVVRTGLYYGFKVLGIRKGFNGLINGDIEELTARSVGDIIHRGGTILQTARSPQFKTEEGLKKAMSMAKVFGIDALVVIGGDGSYRGARDISKLGLNVIGIPGTIDNDIGCTDYTIGFDTAMNTVQDAIDKIRDTAYSHERCSVLEVMGRHAGYIAVNVSISGGAEAVVLPEKPFDMDTDVIKPIIEGRNRGKKHYLVIVAEGGEGKAIEIAKEITEKTGIEARATILGHIQRGGSPTVYDRVMASQMGAKAVEVLMENKRNRVIVFKDNQIGDMDLEEALQVKKTISEDLIQLSKILAL
notes: N-terminal His6 tag with ~4-kDa linker (pRSET-A, plasmid pAHCT1261), tag kept; codon-optimized, E. coli T7 Shuffle; ~40 kDa monomer
Km [5, 8]: 2500 ± 960 µM
Vmax [5, 8]: 430 µmol/min/mg
Km [6, 9]: 200 ± 20 µM
Vmax [6, 9]: 282 µmol/min/mg
